Experimental data as given in paper PMC3306812 (Molecular Cell, 2012).

Target: full-length OTUB1 (human, UniProt Q96FW1 1-271)
Assay: NMR titration

full-length OTUB1, sequence (Q96FW1 whole entry): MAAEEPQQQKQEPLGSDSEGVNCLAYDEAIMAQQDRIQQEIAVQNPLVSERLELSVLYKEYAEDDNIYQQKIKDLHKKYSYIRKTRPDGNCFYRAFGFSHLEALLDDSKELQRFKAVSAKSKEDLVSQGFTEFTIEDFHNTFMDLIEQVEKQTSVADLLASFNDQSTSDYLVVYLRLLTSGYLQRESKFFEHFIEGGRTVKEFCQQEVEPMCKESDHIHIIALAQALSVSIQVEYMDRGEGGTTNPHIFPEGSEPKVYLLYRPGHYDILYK

B1: UBC13 (enzyme, UniProt P61088 1-152, looked up)
chain: MAGLPRRIIKETQRLLAEPVPGIKAEPDESNARYFHVVIAGPQDSPFEGGTFKLELFLPEEYPMAAPKVRFMTKIYHPNVDKLGRICLDILKDKWSPALQIRTVLLSIQALLSAPNPDDPLANDVAEQWKTNEAQAIETARAWTRLYAMNNI
  binding result: binds
